Experimental findings from publication PMC10799895 (Nature Communications, 2024) are described below.

The assay addresses T1, His-sumo-ATG14 (UniProt Q6ZNE5 1-492).
T1 construct: not shown: 6×His, N-terminal, kept; SUMO, N-terminal, kept
In words: pull-down; GST pull-down in vitro: GST-tagged protein on GST beads with the His-tagged protein overnight at 4 °C in 20 mM Tris pH 7.4, 300 mM NaCl, 0.1% NP-40, 1 mM PMSF; three washes; western blot. The note with it: both partners purified.

T1 sequence (Q6ZNE5 whole entry): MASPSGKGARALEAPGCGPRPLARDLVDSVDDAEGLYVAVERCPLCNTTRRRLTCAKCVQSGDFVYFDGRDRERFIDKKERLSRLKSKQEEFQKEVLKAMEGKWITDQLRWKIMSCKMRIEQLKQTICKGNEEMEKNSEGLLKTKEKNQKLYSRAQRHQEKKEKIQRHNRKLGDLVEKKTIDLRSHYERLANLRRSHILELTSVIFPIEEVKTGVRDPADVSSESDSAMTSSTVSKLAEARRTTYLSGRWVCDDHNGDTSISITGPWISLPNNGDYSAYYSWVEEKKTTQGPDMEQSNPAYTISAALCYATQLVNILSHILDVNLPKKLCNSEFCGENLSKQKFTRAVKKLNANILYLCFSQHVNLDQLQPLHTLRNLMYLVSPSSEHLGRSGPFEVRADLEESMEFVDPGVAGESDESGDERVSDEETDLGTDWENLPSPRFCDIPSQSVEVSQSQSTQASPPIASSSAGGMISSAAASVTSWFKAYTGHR

B1: GST-GABARAP (natural protein, UniProt O95166 1-117, looked up)
chain: MKFVYKEEHPFEKRRSEGEKIRKKYPDRVPVIVEKAPKARIGDLDKKKYLVPSDLTVGQFYFLIRKRIHLRAEDALFFFVNNVIPPTSATMGQLYQEHHEEDFFLYIAYSDESVYGL
notes: also called GST-ATG8s; not shown: GST, N-terminal, kept
In the case of B1, the binding result was “binds”.
